# Data: paper PMC2662861, “An unexpected phosphate binding site in Glyceraldehyde 3-Phosphate Dehydrogenase: Crystal structures of apo, holo and ternary complex of Cryptosporidium parvum enzyme” (BMC Structural Biology, 2009)
# B1: CpGAPDH (Cryptosporidium parvum glyceraldehyde 3-phosphate dehydrogenase) (Cryptosporidium parvum) (protein)
# chain: MTATLGINGFGRIGRLVLRACMERNDITVVAINDPFMDVEYMAYLLKYDSVHGNFNGTVEVSGKDLCINGKVVKVFQAKDPAEIPWGASGAQIVCESTGVFTTEEKASLHLKGGAKKVIISAPPKDNVPMYVMGVNNTEYDPSKFNVISNASCTTNCLAPLAKIINDKFGIVEGLMTTVHSLTANQLTVDGPSKGGKDWRAGRCAGNNIIPASTGAAKAVGKVIPALNGKLTGMAIRVPTPDVSVVDLTCKLAKPASIEEIYQAVKEASNGPMKGIMGYTSDDVVSTDFIGCKYSSIFDKNACIALNDSFVKLISWYDNESGYSNRLVDLAVYVASRGL
# notes: recombinant, N-terminal hexa-histidine tag kept, expressed in E. coli; homotetramer
# Substrate: O=C[C@H](O)COP(=O)(O)O
# Test: purified protein
# Assay type: biochemical, Cryptosporidium parvum
# Details: 150 μM NAD, 50 mM triethanolamine, 50 mM Na2HPO4, 0.2 mM EDTA, pH 8.8, D-G3H 1.47-5.88 mM supplied as DL-G3H
protein,measurement,value
B1,Km,762.7 ± 43.0 µM
